Drawing on PMC9842712, “Cryo-EM structure of hnRNPDL-2 fibrils, a functional amyloid associated with limb-girdle muscular dystrophy D3” (Nature Communications, 2022), this text covers binding result and Kd for 2 molecules.

Data set [1] deals with the molecule itself. Description: cryo-EM structure; helical reconstruction of amyloid fibrils formed at pH 7.5, 300 mM NaCl; single protofilament, cross-beta stacking of subunits; 2.5 Å.
Data set [2] deals with T1, hnRNPDL-2 (soluble) (human, UniProt O14979-2 1-301).
T1 sequence: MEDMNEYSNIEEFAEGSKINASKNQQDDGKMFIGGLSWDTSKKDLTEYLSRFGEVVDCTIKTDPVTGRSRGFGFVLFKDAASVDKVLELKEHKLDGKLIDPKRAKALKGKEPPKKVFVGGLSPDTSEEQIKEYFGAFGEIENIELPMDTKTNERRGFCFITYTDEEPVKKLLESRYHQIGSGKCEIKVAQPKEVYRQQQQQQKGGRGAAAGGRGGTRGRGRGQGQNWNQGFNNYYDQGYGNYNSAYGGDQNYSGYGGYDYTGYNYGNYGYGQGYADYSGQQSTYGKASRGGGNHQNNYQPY
Description: EMSA; apparent Kd, Hill fit; 50 nM probe; EMSA: 10 ul, 50 nM probe, 24 h at RT, 8% polyacrylamide gel, buffer not stated; fibril binding: 24 h at RT, spin 16,000 x g at 4 C, pellet wash 50 mM HEPES pH 7.5, 150 mM NaCl. Conditions: protein: recombinant; tags: N-terminal His-SUMO (expression construct); label: fluorescein, printed at 5' side (F-); FITC in peer review file; single strand, 7-mer.

B1: hnRNPDL-2 (human heterogeneous ribonucleoprotein D-like, isoform 2), wild type (natural protein, UniProt O14979-2 1-301, looked up)
chain: T1 sequence
notes: Heterogeneous nuclear ribonucleoprotein D-like, human, isoform hnRNPDL-2 of 301 residues (RRM1, RRM2, C-terminal Y/G-rich LCD ~201-285, PY-NLS 281-301; exon 6 = residues 224-280). numbers count on: hnRNPDL-2 (the 301-residue isoform); Cloned in pETite with a His-SUMO N-terminal tag; In the fibril the subunits stack in a single protofilament; also called WT hnRNPDL-2; full-length hnRNPDL-2; …
B1: in data set [1], the binding result is on record as “binds”.
Consider GACUAGC (ssRNA) [F-RNA (F-GACUAGC)], for which the Kd in data set [2] is 22.8 ± 3.95 µM.
